Laboratory results reported in patent US20220273720A1.

Target: CD3 on non-edited CD3+ T cells of a human donor (human) (UniProt P07766)
Experiment: cell-based or functional assay

CD3 on non-edited CD3+ T cells of a human donor (human), sequence (P07766 23-207, chain 1 of 3): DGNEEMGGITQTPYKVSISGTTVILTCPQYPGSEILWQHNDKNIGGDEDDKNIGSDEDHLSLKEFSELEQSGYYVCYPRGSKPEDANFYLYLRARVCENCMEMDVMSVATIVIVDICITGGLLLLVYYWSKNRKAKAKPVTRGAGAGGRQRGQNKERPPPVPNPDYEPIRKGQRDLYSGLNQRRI
CD3 on non-edited CD3+ T cells of a human donor (human), sequence (P09693 23-182, chain 2 of 3, further chain): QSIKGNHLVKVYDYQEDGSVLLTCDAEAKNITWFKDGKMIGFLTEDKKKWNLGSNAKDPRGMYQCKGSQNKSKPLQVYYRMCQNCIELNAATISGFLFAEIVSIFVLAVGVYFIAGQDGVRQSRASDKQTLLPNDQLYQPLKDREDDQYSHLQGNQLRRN
CD3 on non-edited CD3+ T cells of a human donor (human), sequence (P04234 22-171, chain 3 of 3, further chain): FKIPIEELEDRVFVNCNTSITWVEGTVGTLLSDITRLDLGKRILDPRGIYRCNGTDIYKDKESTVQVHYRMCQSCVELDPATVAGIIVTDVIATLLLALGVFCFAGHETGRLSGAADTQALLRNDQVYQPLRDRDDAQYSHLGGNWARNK

## foralumab biosimilar (Creative Biolabs) (antibody)
  percent killing in a complement-dependent cytotoxicity (CDC) assay on non-edited CD3+ T cells, 24 h, 30% human serum, antibody at 30-4000 ng/ml: 65%
